In publication PMC11867022:

Tested on: S9.6 antibody (anti-DNA-RNA hybrid) (mouse)
Assay: SPR
Settings: single-cycle kinetics, pH 7.0, SPR: 10 mM HEPES pH 7.0, 15 mM MgCl2, 80 mM NaCl, S9.6 on CM5 chip, EMSA: 200 nM nucleic acid, 80 ug/mL S9.6, 30 min room temperature, 6% PAGE in 0.5X TBE

“AGTGAATTCTACCAGTGCCATAGAGGAGAGGAGAGGAGGGGAGGTTTACCTCCCCTCCTCTCCTCTCCCTTTGCCTCTCCTCTCCTCCCCTCCGT / UAUGGCACUGGUAGAAUUCACU [Switch A (30% TAT)/miR-183 hybrid]” was tested, and the Kd (ka 5.99e5 1/Ms, kd 1.74e-4 1/s) was 291 pM.
Sequence “AAGAAAAGAGAAGAAGAGAACACCTTCTCTTCTTCTCTTTTCTTAGACCCCTATCACGATTAGCATTAA / UUAAUGCUAAUCGUGAUAGGGGU [Switch B (70% TAT)/miR-155 hybrid]” has a Kd of 144 pM.
